Assay results from patent US20240410900A1 (Hoffmann-La Roche, published 2024).
Residue numbers refer to the chain shown, from its start.

B1: anti-PG variant Fc-region antibody M1.3.17 (antibody, V domains shown)
VH: EVKLLESGGGLVQPGGSLKLSCAASGIDFRRYWMNWVRQAPGKGLEWIGEIDPDSSTINYTPSLKDKFIISRDNAKNTMYLQMRKVRSEDTALYYCARPYDYGAWFAYWGQGTLVTVSA
VL: QAVVTQESALTTSPGETVTLTCRSTTGAVTTSNYANWVQEKPDHLFTGLIGGTNKRAPGVPARFSGSLIGDKAALTITGAQTEDEAIYFCALWYSDHWVFGGGTKLTVL
notes: Monomeric, bivalent full-length antibody with murine variable domains; Biotinylated when used as capture antibody; also called anti-PG antibody clone 1.3.17; M1.3.17-Bi
B2: anti-PG variant Fc-region antibody M1.7.24 (monomeric, bivalent) (antibody, V domains shown)
VH: B1 VH with I27F, R30S, D52T, M79L, R84I, A97V, Y108S
VL: B1 VL with T25S, D96N
notes: Full-length Y-shaped antibody with murine variable domains; Biotinylated when used as capture antibody; also called anti-PG antibody clone 1.7.24; M1.7.24-Bi
B3: anti-AAA variant Fc-region antibody M1.6.22 (antibody, V domains shown)
VH: EVQLVESGGDLVKPGGSLKLSCAASGFTFSSYGMSWVRQTPDKRLEWVATISSGGSYIYYPDSVKGRFTISRDNAKNTLYLQMSSLKSEDTAMYYCARLGMITTGYAMDYWGQGTSVTVSS
VL: DVLMTQTPLSLPVSLGDQASISCRSSQTIVHSTGHTYLEWFLQKPGQSPKLLIYKVSNRFSGVPDRFSGSGSGTDFTLKISRVEAEDLGVYYCFQGSHVPYTFGGGTKLEIK
notes: Murine variable domains; also called M1.6.22-Bi

Experiments:
[1] = molecular target: T1, anti-VEGF/ANG2 antibody (IgG1 subclass with mutations P329G/L234A/L235A); test: ELISA assay C, tracer FcγRI-Dig, target 0 ng/mL (blank)
T1 construct: Positions are EU numbers; also called sample 2; antibody 2

[2] = molecular target: T2, anti-VEGF/ANG2 antibody (wild-type IgG1 subclass) (UniProt P01857-1 1-330 = IgG part); test: as above
T2 construct: also called sample 5; antibody 5

[3] = molecular target: T3, anti-IGF-1R antibody (IgG1 subclass with mutations I253A/H310A/H435A); test: as above
T3 construct: Positions are EU numbers; also called sample 3; antibody 3

[4] = molecular target: T4, anti-VEGF/ANG2 antibody (IgG1 subclass with mutations P329G/L234A/L235A/I253A/H310A/H435A); test: as above
T4 construct: Format of the bispecific antibody not described; Positions are EU numbers, not positions on the UniProt entry; also called sample 1; antibody 1

[5] = molecular target: T5, anti-P-Selectin antibody (IgG4 subclass with mutations S228P/L235E); test: as above
T5 construct: Positions are EU numbers; also called sample 4; antibody 4

[6] = molecular target: T1, anti-VEGF/ANG2 antibody (IgG1 subclass …); test: ELISA assay C, tracer FcγRI-Dig, target 25 ng/mL
[7] = molecular target: T2, anti-VEGF/ANG2 antibody (wild-type IgG1 …); test: ELISA assay C, tracer FcγRI-Dig, target 25 ng/mL
[8] = molecular target: T3, anti-IGF-1R antibody (IgG1 subclass …); test: ELISA assay C, tracer FcγRI-Dig, target 25 ng/mL
[9] = molecular target: T4, anti-VEGF/ANG2 antibody (IgG1 subclass …); test: ELISA assay C, tracer FcγRI-Dig, target 25 ng/mL
[10] = molecular target: T5, anti-P-Selectin antibody (IgG4 subclass …); test: ELISA assay C, tracer FcγRI-Dig, target 25 ng/mL
[11] = molecular target: T4, anti-VEGF/ANG2 antibody (IgG1 subclass …); test: bridging ELISA, target-Bi capture and target-Dig tracer, binder 125 ng/mL, against the blank
Method: A dilution series of the monomeric full-length anti-PG Fc-region antibody clone 1.3.17 was prepared as standards for checking the possibility of generating a standard curve.
Biotinylated anti-VEGF/ANG2 antibody with the mutations P329G, L234A, L235A, I253A, H310A, and H435A and digoxygenylated anti-VEGF/ANG2 antibody with the mutations P329G, L234A, L235A, 1253A, H310A, and H435A were pre-incubated with the standards overnight at room temperature. After pre-incubation, the samples were transferred to a streptavidin-coated multi-well plate and incubated for 1 hour at room temperature. Excess of unbound antibody was removed by washing. After a washing step the bound digoxygenylated complexes comprising biotinylated and digoxygenylated anti-VEGF/ANG2 antibody with the mutations P329G, L234A, L235A, 1253A, H310A, and H435A as well as the monomeric, full-length anti-PG Fc-region antibody M1.3.17 (SEQ ID NO: 03 and 04) were detected with an horseradish peroxidase (HRP) labelled anti-digoxygenin-antibody. After a washing step and upon incubation with the respective substrate the HRP present in the formed complex catalyzes the conversion of ABTS into a colored product. The signal was measured by Elisa reader at 405 nm wavelength (reference wavelength: 490 nm). Absorbance values of each serum sample were determined in triplicates.

[12] = molecular target: T6, drug antibody (capture and tracer of the bridging immunoassay of FIGS. 2, 7 and 8; not named); test: bridging immunoassay, drug antibody as capture and tracer, binder at 1000 ng/mL
T6 construct: also called the same but differently derivatized drug antibodies

[13] = molecular target: T6, drug antibody (capture and tracer of …); test: bridging immunoassay, drug antibody as capture and tracer, binder at 2,500 ng/ml

Binder | signal [OD405 nm] [1] [OD405 nm] | signal [OD405 nm] [2] [OD405 nm] | signal [OD405 nm] [3] [OD405 nm] | signal [OD405 nm] [4] [OD405 nm] | signal [OD405 nm] [5] [OD405 nm] | signal [OD405 nm] [6] [OD405 nm] | signal [OD405 nm] [7] [OD405 nm] | signal [OD405 nm] [8] [OD405 nm] | signal [OD405 nm] [9] [OD405 nm] | signal [OD405 nm] [10] [OD405 nm] | signal to noise ratio [11] | signal-to-noise ratio (S/N) [12] | signal-to-noise ratio [13]
B1 | 1.23 | 1.2 | 1.22 | 1.18 | 1.19 | 1.21 | 1.16 | 1.2 | 1.07 | 1.17 | 1.85 | – | –
B2 | 0.092 | 0.073 | 0.086 | 0.076 | 0.076 | 0.083 | 0.063 | 0.073 | 0.082 | 0.07 | – | 3.8 | > 2
B3 | 0.064 | 0.069 | 0.069 | 0.077 | 0.077 | 0.063 | 0.066 | 0.401 | 0.081 | 0.06 | – | – | –
